Reference: publication PMC9398120 (Molecular Cancer Therapeutics, 2021)

Assays:
recombinant CD73 [1] = molecular target: T1, recombinant CD73 (Homo sapiens, UniProt P21589); assay: AUC
recombinant CD73 [2] = molecular target: T1, recombinant CD73

T1 sequence (P21589 27-549): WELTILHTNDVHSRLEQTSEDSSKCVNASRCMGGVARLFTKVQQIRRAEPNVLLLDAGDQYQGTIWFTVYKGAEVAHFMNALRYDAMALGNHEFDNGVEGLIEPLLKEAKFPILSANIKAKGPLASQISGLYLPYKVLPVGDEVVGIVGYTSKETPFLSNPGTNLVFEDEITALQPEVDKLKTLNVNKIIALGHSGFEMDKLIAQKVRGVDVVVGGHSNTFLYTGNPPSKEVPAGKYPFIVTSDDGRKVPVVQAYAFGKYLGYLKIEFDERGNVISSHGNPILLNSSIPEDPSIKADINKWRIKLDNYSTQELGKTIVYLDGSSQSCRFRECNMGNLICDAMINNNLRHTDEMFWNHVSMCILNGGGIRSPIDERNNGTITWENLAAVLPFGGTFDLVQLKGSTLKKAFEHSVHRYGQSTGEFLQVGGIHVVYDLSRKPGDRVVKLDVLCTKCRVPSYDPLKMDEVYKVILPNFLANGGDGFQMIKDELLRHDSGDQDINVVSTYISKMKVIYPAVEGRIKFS

B1: mAb19 (antibody, V domains shown)
VH: QVQLVQSGAEVKKPGDSVKVSCKASGYTFTTYWMHWVRQAPGQGLEWMGAIYPGLSDTTYNQKFKGKVTMTRDTSTSTVYMKLSSLRSEDTAVYYCARLLDYAMDYWGQGTLVTVSS
VL: DIQMTQSPSSLSASVGDRVTITCRASQDIRSYLNWHQQKPGKAPKLLIWYTSRLHSGVPSRFSGSGSGTDYTLTISSLQPEDFATYFCQQGETLPWTFGQGTKLEIK
stoichiometry N (recombinant CD73 [1]): 1 mAb19 per CD73 (printed as 2:2) | Kd (recombinant CD73 [2]): 0.074 nM
